Measured values reported in the supplement of paper PMC9112550, “Optimization of the antimicrobial peptide Bac7 by deep mutational scanning” (BMC Biology, 2022).

Test system: Escherichia coli TOP10
Experiment: shrunken log2 fold change of peptide-encoding DNA abundance (4.5 h post-induction vs induction); higher = less antimicrobial activity (less host growth inhibition)
Conditions: time post-induction: 4.5 h; library: site-saturation at positions 5, 18, 19, 20
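Further: peptides expressed intracellularly from a pBAD plasmid library in pooled LB shake-flask culture, induced with 0.3% L-arabinose, DNA abundance read by NGS, three biological replicates, DESeq2 with apeglm shrinkage.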

Sequence | shrunken log2 fold change
RRIRKRPPRLPRPRPRPSWMPRP | 0.93
RRIRLRPPRLPRPRPRPDLMPRP | -0.145
RRIRRRPPRLPRPRPRPMADPRP | 0.357
RRIRDRPPRLPRPRPRPDNMPRP | 0.0341
RRIRLRPPRLPRPRPRPRELPRP | 0.765
RRIRQRPPRLPRPRPRPSEEPRP | -0.226
RRIRKRPPRLPRPRPRPQREPRP | 0.749
RRIRERPPRLPRPRPRPDADPRP | 0.0155
RRIRHRPPRLPRPRPRPCKFPRP | 0.0809
RRIRARPPRLPRPRPRPEHVPRP | 0.269
RRIRNRPPRLPRPRPRPSCPPRP | -0.4
RRIRFRPPRLPRPRPRPPYLPRP | -0.465
RRIRCRPPRLPRPRPRPVKDPRP | -0.305
RRIRIRPPRLPRPRPRPMKTPRP | -0.057
RRIRLRPPRLPRPRPRPVMFPRP | -0.268
RRIRHRPPRLPRPRPRPDHHPRP | 0.0587
RRIRGRPPRLPRPRPRPWVEPRP | 0.129
RRIRIRPPRLPRPRPRPYLQPRP | -0.00195
RRIRARPPRLPRPRPRPAPGPRP | 0.972
RRIRSRPPRLPRPRPRPSTRPRP | -0.0999
RRIRDRPPRLPRPRPRPRVQPRP | -0.183
RRIRERPPRLPRPRPRPDPDPRP | -0.0294
RRIRYRPPRLPRPRPRPPFSPRP | -0.285
RRIRFRPPRLPRPRPRPAYRPRP | -0.0676
RRIRWRPPRLPRPRPRPEQTPRP | -0.0026

Sequence | shrunken log2 fold change
RRIRIRPPRLPRPRPRPHIHPRP | -0.811
RRIRERPPRLPRPRPRPKDFPRP | -0.00088
RRIRNRPPRLPRPRPRPHNLPRP | -0.272
RRIRMRPPRLPRPRPRPCIFPRP | 0.0107
RRIRIRPPRLPRPRPRPLPYPRP | -0.565
RRIRWRPPRLPRPRPRPDWIPRP | -0.0204
RRIRKRPPRLPRPRPRPDCQPRP | 0.00443
RRIRHRPPRLPRPRPRPDRYPRP | -0.236
RRIRVRPPRLPRPRPRPEEIPRP | -0.0172
RRIRMRPPRLPRPRPRPCKPPRP | -0.173
RRIRQRPPRLPRPRPRPSSCPRP | 0.0394
RRIRKRPPRLPRPRPRPISGPRP | -7.33e-05
RRIRQRPPRLPRPRPRPGYDPRP | -0.0645
RRIRGRPPRLPRPRPRPHVEPRP | 0.36
RRIRPRPPRLPRPRPRPGWRPRP | 0.438
RRIRYRPPRLPRPRPRPLDFPRP | -0.269
RRIRGRPPRLPRPRPRPQKDPRP | 0.346
RRIRWRPPRLPRPRPRPFYYPRP | -0.138
RRIRWRPPRLPRPRPRPKDTPRP | -0.145
RRIRNRPPRLPRPRPRPYNPPRP | -0.299
RRIRHRPPRLPRPRPRPNPRPRP | -0.0621
RRIRPRPPRLPRPRPRPPFCPRP | 0.317
RRIRTRPPRLPRPRPRPVWPPRP | 0.332
RRIRFRPPRLPRPRPRPLDAPRP | 0.0999
RRIRNRPPRLPRPRPRPCEEPRP | -0.0104

Sequence | shrunken log2 fold change
RRIRRRPPRLPRPRPRPPVTPRP | 0.538
RRIRGRPPRLPRPRPRPVCFPRP | 0.997
RRIRGRPPRLPRPRPRPGCDPRP | 1.26
RRIRRRPPRLPRPRPRPQTQPRP | 0.506
RRIRMRPPRLPRPRPRPWITPRP | -0.00122
RRIRPRPPRLPRPRPRPHEPPRP | 0.239
RRIRIRPPRLPRPRPRPIIWPRP | -0.167
RRIRARPPRLPRPRPRPAYHPRP | -0.0226
RRIRNRPPRLPRPRPRPYYSPRP | -0.541
RRIRWRPPRLPRPRPRPVLTPRP | 0.147
RRIRSRPPRLPRPRPRPQSLPRP | -0.232
RRIRVRPPRLPRPRPRPDMTPRP | -0.0435
RRIRHRPPRLPRPRPRPMQFPRP | 0.00869
RRIRIRPPRLPRPRPRPHNMPRP | -0.898
RRIRYRPPRLPRPRPRPPCIPRP | -0.583
RRIRLRPPRLPRPRPRPTHWPRP | 0.416
RRIRGRPPRLPRPRPRPDVGPRP | 0.434
RRIRDRPPRLPRPRPRPFNNPRP | -0.226
RRIRYRPPRLPRPRPRPACSPRP | -0.447
RRIRERPPRLPRPRPRPVKAPRP | -0.0316
RRIRERPPRLPRPRPRPIHTPRP | 0.0013
RRIRERPPRLPRPRPRPRWTPRP | 0.0925
RRIRERPPRLPRPRPRPLCHPRP | -0.0201
RRIRIRPPRLPRPRPRPFNPPRP | -0.0657
RRIRPRPPRLPRPRPRPRRTPRP | 0.507

Sequence | shrunken log2 fold change
RRIRWRPPRLPRPRPRPHSGPRP | 0.00842
RRIRMRPPRLPRPRPRPNNEPRP | -0.0748
RRIRGRPPRLPRPRPRPKKQPRP | 0.0981
RRIRDRPPRLPRPRPRPHDIPRP | 0.0555
RRIRHRPPRLPRPRPRPYNLPRP | -0.302
RRIRWRPPRLPRPRPRPAPLPRP | 0.512
RRIRMRPPRLPRPRPRPCCSPRP | 0.0205
RRIRSRPPRLPRPRPRPEHEPRP | -0.182
RRIRIRPPRLPRPRPRPDFWPRP | 0.0448
RRIRWRPPRLPRPRPRPAWQPRP | 0.427
RRIRIRPPRLPRPRPRPCTEPRP | -0.0706
RRIRPRPPRLPRPRPRPGKPPRP | 0.306
RRIRKRPPRLPRPRPRPAGNPRP | 0.304
RRIRHRPPRLPRPRPRPRILPRP | 0.091
RRIRKRPPRLPRPRPRPQWIPRP | 0.00082
RRIRPRPPRLPRPRPRPFWPPRP | 0.199
RRIRLRPPRLPRPRPRPDWGPRP | 0.222
RRIRTRPPRLPRPRPRPKKQPRP | -0.15
RRIRIRPPRLPRPRPRPWLMPRP | -0.202
RRIRLRPPRLPRPRPRPNFAPRP | 0.0393
RRIRGRPPRLPRPRPRPITPPRP | -0.0185
RRIRCRPPRLPRPRPRPTNYPRP | 0.263
RRIRQRPPRLPRPRPRPGWSPRP | 0.119
RRIRLRPPRLPRPRPRPVFEPRP | 0.239
RRIRCRPPRLPRPRPRPLYGPRP | -0.914

Sequence | shrunken log2 fold change
RRIRERPPRLPRPRPRPQCPPRP | -0.207
RRIRMRPPRLPRPRPRPMDMPRP | 0.482
RRIRPRPPRLPRPRPRPWQKPRP | -0.179
RRIRIRPPRLPRPRPRPSADPRP | -0.235
RRIRLRPPRLPRPRPRPQVNPRP | -0.141
RRIRMRPPRLPRPRPRPITDPRP | -0.667
RRIRGRPPRLPRPRPRPLRCPRP | 0.58
RRIRHRPPRLPRPRPRPHKQPRP | -0.225
RRIRHRPPRLPRPRPRPCMWPRP | -0.193
RRIRCRPPRLPRPRPRPCKRPRP | -0.115
RRIRYRPPRLPRPRPRPEVPPRP | -0.0684
RRIRCRPPRLPRPRPRPRSYPRP | -0.233
RRIRFRPPRLPRPRPRPVKIPRP | -0.0378
RRIRSRPPRLPRPRPRPWHVPRP | -0.0882
RRIRMRPPRLPRPRPRPLYPPRP | -0.151
RRIRIRPPRLPRPRPRPAMDPRP | -0.218
RRIRQRPPRLPRPRPRPKKCPRP | -0.0485
RRIRYRPPRLPRPRPRPKKEPRP | -0.00181
RRIRMRPPRLPRPRPRPTDMPRP | 0.0845
RRIRNRPPRLPRPRPRPITFPRP | -0.0674
RRIRVRPPRLPRPRPRPQTRPRP | 0.355
RRIRNRPPRLPRPRPRPFFSPRP | -0.14
RRIRNRPPRLPRPRPRPERIPRP | -0.00936
RRIRMRPPRLPRPRPRPYANPRP | -0.139
RRIRQRPPRLPRPRPRPHRKPRP | -0.227

Sequence | shrunken log2 fold change
RRIRDRPPRLPRPRPRPYIVPRP | 0.0363
RRIRERPPRLPRPRPRPDMKPRP | 0.0475
RRIRRRPPRLPRPRPRPPGTPRP | 0.705
RRIRDRPPRLPRPRPRPQTQPRP | 0.372
RRIRPRPPRLPRPRPRPNIDPRP | -0.468
RRIRARPPRLPRPRPRPSYQPRP | -0.234
RRIRFRPPRLPRPRPRPVPQPRP | 0.261
RRIRWRPPRLPRPRPRPCWVPRP | -0.116
RRIRGRPPRLPRPRPRPERHPRP | 0.834
RRIRNRPPRLPRPRPRPVMTPRP | 0.0556
RRIRWRPPRLPRPRPRPLYPPRP | -0.208
RRIRQRPPRLPRPRPRPCIIPRP | -0.0528
RRIRDRPPRLPRPRPRPEDMPRP | 1.81
RRIRERPPRLPRPRPRPGKNPRP | -0.212
RRIRFRPPRLPRPRPRPRPWPRP | 0.505
RRIRFRPPRLPRPRPRPRQGPRP | 0.259
RRIRARPPRLPRPRPRPYVTPRP | -0.658
RRIRHRPPRLPRPRPRPWTSPRP | -0.00277
RRIRHRPPRLPRPRPRPPPKPRP | 0.906
RRIRPRPPRLPRPRPRPSPVPRP | 0.0207
RRIRWRPPRLPRPRPRPPITPRP | -0.173
RRIRTRPPRLPRPRPRPFRIPRP | -0.0114
RRIRCRPPRLPRPRPRPIQEPRP | 0.0221
RRIRGRPPRLPRPRPRPTFDPRP | 0.548
RRIRERPPRLPRPRPRPTHVPRP | 0.231
